Source: the supplement of paper PMC7877785
± gives the uncertainty stated by the source.

Test: self-splicing fitness, log relative to wild type (ln ratio); higher = more splicing; Tetrahymena group I intron in knt gene, E. coli kanamycin selection, DiMSum; sequences stand for … in CUCUCU…GGAGGGAAAAGUUAUCAGGCAUGCACCUGGUAGCUAGUCUUUAAACCAAUAGAUUGCAUCGGUUUAAAAGGCAAGACCGUCAAAUUGCGGGAAAGGGGUCAACAGCCGUUCAGUACCAAGUCUCAGGGGAAACUUUGAGAUGGCCUUGCAAAGGGUAUGGUAAUAAGCUGACGGACAUGGUCCUAACCACGCAGCCAAGUCCUAAGUCAACAGAUCUUCUGUUGAUAUGGAUGCAGUUCACAGACUAAAUGUCGGUCGGGGAAGAUGUAUUCUUCUCAUAAGAUAUAGUCGGACCUCUCCUUAAUGGGAGCUAGCGGAUGAAGUGAUGCAACACUGGAGCCGCUGGGAACUAAUUUGUAUGCGAAAGUAUAUUGAUUAGUUUUGGAGUACUCGUGGUCG
Outline: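 Library with all eight P1ex-region intron nucleotides randomised, intron inside the knt kanamycin-resistance gene on pET-22b(+), in E. coli BL21(DE3). Cells grew overnight at 37°C or 30°C on LB agar with or without 25 μg/mL kanamycin (plus 100 μg/mL carbenicillin, 50 μM IPTG, 0.2% rhamnose), in six replicate transformations. Pooled colonies were amplicon-sequenced on Illumina HiSeq 2500. DiMSum fitness is the error-weighted combination of wild-type-normalised replicate fold changes, kanamycin versus none.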

CCUGAGCAAUAUUACGGCGU
self-splicing fitness (ln) (30 °C): -3.51 ± 0.2 | self-splicing fitness (ln) (37 °C): -2.88 ± 0.19

CCUGAGCAAUAUUACGGGCC
self-splicing fitness (ln) (30 °C): -3.87 ± 0.31 | self-splicing fitness (ln) (37 °C): -2.45 ± 0.23

CCUGAGCAAUAUUACGGGUC
self-splicing fitness (ln) (30 °C): -2.95 ± 0.17 | self-splicing fitness (ln) (37 °C): -2.87 ± 0.27

CCUGAGCAAUAUUACGGUGU
self-splicing fitness (ln) (30 °C): -3.89 ± 0.24 | self-splicing fitness (ln) (37 °C): -2.32 ± 0.14

CCUGAGCAAUAUUACGUAAG
self-splicing fitness (ln) (30 °C): -3.03 ± 0.19 | self-splicing fitness (ln) (37 °C): -1.6 ± 0.12

CCUGAGCAAUAUUACGUACA
self-splicing fitness (ln) (30 °C): -3.13 ± 0.33 | self-splicing fitness (ln) (37 °C): -0.722 ± 0.3

CCUGAGCAAUAUUACGUCGG
self-splicing fitness (ln) (30 °C): -4.36 ± 0.36 | self-splicing fitness (ln) (37 °C): -2.47 ± 0.23

CCUGAGCAAUAUUACGUCGU
self-splicing fitness (ln) (30 °C): -2.02 ± 0.43 | self-splicing fitness (ln) (37 °C): -2.06 ± 0.27

CCUGAGCAAUAUUACGUGAA
self-splicing fitness (ln) (30 °C): -4.54 ± 0.34 | self-splicing fitness (ln) (37 °C): -2.83 ± 0.21

CCUGAGCAAUAUUACGUGCC
self-splicing fitness (ln) (37 °C): -1.6 ± 0.32

CCUGAGCAAUAUUACGUUAA
self-splicing fitness (ln) (30 °C): -2.92 ± 0.24 | self-splicing fitness (ln) (37 °C): -2.52 ± 0.26

CCUGAGCAAUAUUACGUUAU
self-splicing fitness (ln) (30 °C): -3.15 ± 0.26 | self-splicing fitness (ln) (37 °C): -1.96 ± 0.21

CCUGAGCAAUAUUACGUUCU
self-splicing fitness (ln) (30 °C): -3.63 ± 0.25 | self-splicing fitness (ln) (37 °C): -2.43 ± 0.25

CCUUAGCAAUAUUACGAACG
self-splicing fitness (ln) (30 °C): -0.742 ± 0.18 | self-splicing fitness (ln) (37 °C): -0.847 ± 0.25

CCUUAGCAAUAUUACGACCA
self-splicing fitness (ln) (30 °C): -2.66 ± 0.36

CCUUAGCAAUAUUACGAGUC
self-splicing fitness (ln) (37 °C): -2.7 ± 0.28

CCUUAGCAAUAUUACGAUGC
self-splicing fitness (ln) (30 °C): -4.15 ± 0.27 | self-splicing fitness (ln) (37 °C): -2.62 ± 0.17

CCUUAGCAAUAUUACGCCGG
self-splicing fitness (ln) (30 °C): -3.82 ± 0.28 | self-splicing fitness (ln) (37 °C): -2.73 ± 0.26

CCUUAGCAAUAUUACGCCUG
self-splicing fitness (ln) (37 °C): -2.89 ± 0.34

CCUUAGCAAUAUUACGCCUU
self-splicing fitness (ln) (30 °C): -3.52 ± 0.32 | self-splicing fitness (ln) (37 °C): -2.57 ± 0.24

CCUUAGCAAUAUUACGCGGA
self-splicing fitness (ln) (30 °C): -2.93 ± 0.19 | self-splicing fitness (ln) (37 °C): -2.55 ± 0.21

CCUUAGCAAUAUUACGCUAU
self-splicing fitness (ln) (30 °C): -3.14 ± 0.14 | self-splicing fitness (ln) (37 °C): -2.64 ± 0.18

CCUUAGCAAUAUUACGCUGA
self-splicing fitness (ln) (30 °C): -3.23 ± 0.47

CCUUAGCAAUAUUACGGAUA
self-splicing fitness (ln) (30 °C): -2.98 ± 0.29 | self-splicing fitness (ln) (37 °C): -1.92 ± 0.37

CCUUAGCAAUAUUACGGCGU
self-splicing fitness (ln) (30 °C): -3.94 ± 0.33 | self-splicing fitness (ln) (37 °C): -2.78 ± 0.32

CCUUAGCAAUAUUACGGGGG
self-splicing fitness (ln) (30 °C): -3.17 ± 0.23 | self-splicing fitness (ln) (37 °C): -1.39 ± 0.23

CCUUAGCAAUAUUACGGGUA
self-splicing fitness (ln) (30 °C): -2.65 ± 0.19 | self-splicing fitness (ln) (37 °C): -2.38 ± 0.26

CCUUAGCAAUAUUACGGGUU
self-splicing fitness (ln) (37 °C): -1.5 ± 0.21

CCUUAGCAAUAUUACGGUAC
self-splicing fitness (ln) (30 °C): -4.06 ± 0.21 | self-splicing fitness (ln) (37 °C): -2.44 ± 0.19

CCUUAGCAAUAUUACGGUUU
self-splicing fitness (ln) (30 °C): -4.06 ± 0.16 | self-splicing fitness (ln) (37 °C): -2.42 ± 0.14

CCUUAGCAAUAUUACGUAAA
self-splicing fitness (ln) (30 °C): -3.63 ± 0.26 | self-splicing fitness (ln) (37 °C): -1.88 ± 0.3

CCUUAGCAAUAUUACGUAGU
self-splicing fitness (ln) (30 °C): -2.48 ± 0.095 | self-splicing fitness (ln) (37 °C): -0.664 ± 0.098

CCUUAGCAAUAUUACGUGCG
self-splicing fitness (ln) (30 °C): -3.52 ± 0.21 | self-splicing fitness (ln) (37 °C): -2.04 ± 0.17

CCUUAGCAAUAUUACGUGGA
self-splicing fitness (ln) (30 °C): -4.29 ± 0.34 | self-splicing fitness (ln) (37 °C): -2 ± 0.2

CGAAAGCAAUAUUACGAACA
self-splicing fitness (ln) (30 °C): -1.92 ± 0.13 | self-splicing fitness (ln) (37 °C): -0.112 ± 0.12

CGAAAGCAAUAUUACGAACU
self-splicing fitness (ln) (30 °C): -1.25 ± 0.091 | self-splicing fitness (ln) (37 °C): 0.0371 ± 0.14

CGAAAGCAAUAUUACGAAUU
self-splicing fitness (ln) (30 °C): -4.27 ± 0.29 | self-splicing fitness (ln) (37 °C): -1.55 ± 0.14

CGAAAGCAAUAUUACGACUC
self-splicing fitness (ln) (30 °C): -2.84 ± 0.14 | self-splicing fitness (ln) (37 °C): -1.63 ± 0.14

CGAAAGCAAUAUUACGAGGA
self-splicing fitness (ln) (30 °C): -3.36 ± 0.25 | self-splicing fitness (ln) (37 °C): -1.13 ± 0.21

CGAAAGCAAUAUUACGAGUA
self-splicing fitness (ln) (30 °C): -3.07 ± 0.19 | self-splicing fitness (ln) (37 °C): -2.36 ± 0.18

CGAAAGCAAUAUUACGAUAU
self-splicing fitness (ln) (30 °C): -3.42 ± 0.28 | self-splicing fitness (ln) (37 °C): -1.27 ± 0.2

CGAAAGCAAUAUUACGCAAU
self-splicing fitness (ln) (30 °C): -3 ± 0.13 | self-splicing fitness (ln) (37 °C): -3.64 ± 0.26

CGAAAGCAAUAUUACGCACG
self-splicing fitness (ln) (30 °C): -3.27 ± 0.17 | self-splicing fitness (ln) (37 °C): -2.03 ± 0.15

CGAAAGCAAUAUUACGCAGC
self-splicing fitness (ln) (30 °C): -3 ± 0.24 | self-splicing fitness (ln) (37 °C): -3.68 ± 0.33

CGAAAGCAAUAUUACGCCAA
self-splicing fitness (ln) (30 °C): -2.65 ± 0.2 | self-splicing fitness (ln) (37 °C): -2.41 ± 0.22

CGAAAGCAAUAUUACGCCUG
self-splicing fitness (ln) (30 °C): -0.16 ± 0.095 | self-splicing fitness (ln) (37 °C): 0.392 ± 0.11

CGAAAGCAAUAUUACGCGCC
self-splicing fitness (ln) (30 °C): -1.85 ± 0.21 | self-splicing fitness (ln) (37 °C): 0.0231 ± 0.24

CGAAAGCAAUAUUACGCGCU
self-splicing fitness (ln) (30 °C): -2.08 ± 0.13 | self-splicing fitness (ln) (37 °C): -1.6 ± 0.12

CGAAAGCAAUAUUACGCUGA
self-splicing fitness (ln) (30 °C): -3.09 ± 0.22 | self-splicing fitness (ln) (37 °C): -1.54 ± 0.19
